Data on 1 molecule can be found in PMC9464622 (2022).

The target of the experiment is T1, LL-37 (Homo sapiens, UniProt P49913).
T1 chain: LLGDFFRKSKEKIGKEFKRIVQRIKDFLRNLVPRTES
Nature of the experiment: tryptophan fluorescence.

B1: rfhSP-A trimeric recombinant fragment (protein)
chain: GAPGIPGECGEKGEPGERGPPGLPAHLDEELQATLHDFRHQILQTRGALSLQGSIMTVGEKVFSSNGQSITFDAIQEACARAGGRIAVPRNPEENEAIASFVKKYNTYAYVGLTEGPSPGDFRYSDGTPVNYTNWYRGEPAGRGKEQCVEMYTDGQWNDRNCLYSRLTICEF
As for B1, the Kd (commonly the free concentration of one partner at which half of the binding sites on the other are occupied at equilibrium, for simple one-to-one binding) stood at 1.22 nM.
